Measured values published in patent US20200407467.

How the values were obtained:
[1] = molecular target: T1, ZNF469 peptide 811-900 (human library), Q96JG9
T1 chain: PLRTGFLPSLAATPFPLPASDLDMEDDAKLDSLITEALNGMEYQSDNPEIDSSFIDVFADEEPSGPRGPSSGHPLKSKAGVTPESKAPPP

[2] = molecular target: T2, HUWE1 peptide 2328-2384 (mouse library), Q7TMY8
T2 chain: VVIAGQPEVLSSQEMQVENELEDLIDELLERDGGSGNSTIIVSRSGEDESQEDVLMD

[3] = molecular target: T3, ANAPC1 peptide 1-90 (human library), Q9H1A4
T3 chain: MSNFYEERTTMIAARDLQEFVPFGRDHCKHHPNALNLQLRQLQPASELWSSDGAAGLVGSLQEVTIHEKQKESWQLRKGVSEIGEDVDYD

[4] = molecular target: T4, UHRF1BP1L peptide 991-1080 (human library), A0JNW5
T4 chain: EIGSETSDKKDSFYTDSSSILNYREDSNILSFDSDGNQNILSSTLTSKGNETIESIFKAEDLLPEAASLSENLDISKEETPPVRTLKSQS

[5] = molecular target: T5, TNS3 peptide 451-540 (human library), Q68CZ2
T5 chain: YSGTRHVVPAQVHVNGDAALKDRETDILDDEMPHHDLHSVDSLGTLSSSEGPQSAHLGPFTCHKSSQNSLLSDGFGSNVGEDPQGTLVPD

[6] = molecular target: LOC100287737 peptide 496-585 (human library)
[7] = molecular target: T6, HMGXB4 peptide 226-315 (human library), Q9UGU5
T6 chain: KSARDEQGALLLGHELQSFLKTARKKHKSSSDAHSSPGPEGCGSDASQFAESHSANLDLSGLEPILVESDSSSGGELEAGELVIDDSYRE

[8] = molecular target: T7, C14orf93 peptide 91-180 (human library), Q9H972
T7 chain: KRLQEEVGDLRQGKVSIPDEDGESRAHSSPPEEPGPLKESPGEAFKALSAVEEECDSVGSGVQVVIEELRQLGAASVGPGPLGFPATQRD

[9] = molecular target: T8, IL1B peptide 75-131 (mouse library)
T8 chain: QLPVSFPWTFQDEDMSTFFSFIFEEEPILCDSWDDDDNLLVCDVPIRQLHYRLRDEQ

[10] = molecular target: T9, Efs peptide 181-270 (human library), O43281
T9 chain: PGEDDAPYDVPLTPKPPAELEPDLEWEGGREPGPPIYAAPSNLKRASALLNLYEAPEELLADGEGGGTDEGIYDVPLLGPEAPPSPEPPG

[11] = molecular target: T10, hoxa2 peptide 271-360 (human library), O43364
T10 chain: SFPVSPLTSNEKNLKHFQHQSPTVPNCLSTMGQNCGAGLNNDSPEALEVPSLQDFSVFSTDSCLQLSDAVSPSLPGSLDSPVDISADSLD

[12] = molecular target: T11, LYST peptide 1171-1260 (human library), Q99698
T11 chain: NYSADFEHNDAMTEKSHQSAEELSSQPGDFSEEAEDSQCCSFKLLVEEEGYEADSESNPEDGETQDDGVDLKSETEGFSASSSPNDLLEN

[13] = molecular target: T7-SEPARATE PreScission-cleavable clone, monovalent display (T7Select1-2b)
[14] = molecular target: MAP3K14 peptide 496-585 (human library), Q99558
[15] = molecular target: T12, BSN peptide 631-720 (human library), Q9UPA5
T12 chain: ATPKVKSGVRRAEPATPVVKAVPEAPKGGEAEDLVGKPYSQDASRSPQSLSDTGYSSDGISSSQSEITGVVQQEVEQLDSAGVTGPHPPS

[16] = molecular target: T13, IL1B peptide 0-56 (mouse library)
T13 chain: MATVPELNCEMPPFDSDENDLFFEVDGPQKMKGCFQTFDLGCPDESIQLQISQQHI

[17] = molecular target: T14, Hmcn2 peptide 1576-1665 (human library), Q8NDA2
T14 chain: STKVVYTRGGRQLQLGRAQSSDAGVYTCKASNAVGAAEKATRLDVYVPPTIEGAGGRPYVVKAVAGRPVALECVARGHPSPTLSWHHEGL

[18] = molecular target: T15, HUWE1 peptide 2291-2347 (mouse library), Q7TMY8
T15 chain: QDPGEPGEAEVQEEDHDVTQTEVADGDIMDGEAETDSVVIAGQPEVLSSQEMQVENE

[19] = molecular target: T16, HUWE1 peptide 2251-2340 (human library), Q7Z6Z7
T16 chain: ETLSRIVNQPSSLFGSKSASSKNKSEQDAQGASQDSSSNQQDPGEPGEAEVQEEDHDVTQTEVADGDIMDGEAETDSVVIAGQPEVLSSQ

[20] = molecular target: T17, HUWE1 peptide 2296-2485 (human library), Q7Z6Z7
T17 chain: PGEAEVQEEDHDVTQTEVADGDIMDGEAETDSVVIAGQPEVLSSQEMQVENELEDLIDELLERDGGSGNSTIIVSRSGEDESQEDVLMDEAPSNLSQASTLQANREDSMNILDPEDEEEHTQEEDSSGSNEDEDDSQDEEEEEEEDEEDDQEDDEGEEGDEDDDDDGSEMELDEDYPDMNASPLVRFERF

[21] = molecular target: Gasdermin-D (peptides of the human library)
[22] = molecular target: unmapped_NM peptide 91-180 (human library)
[23] = molecular target: T18, ERO1L peptide 91-180 (human library), Q96HE7
T18 chain: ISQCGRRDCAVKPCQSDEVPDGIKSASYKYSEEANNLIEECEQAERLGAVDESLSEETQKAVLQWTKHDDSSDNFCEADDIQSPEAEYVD

[24] = molecular target: T19, IL1B peptide 74-130 (mouse library)
T19 chain: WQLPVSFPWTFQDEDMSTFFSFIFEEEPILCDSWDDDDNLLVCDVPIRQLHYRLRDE

[25] = molecular target: HECT, UBA and WWE Domain Containing E3 Ubiquitin Protein Ligase 1 (HUWE1), endogenous in THP-1 cells, Q7Z6Z7
[26] = molecular target: T20, Hyls1 peptide 1-90 (human library), Q96M11
T20 chain: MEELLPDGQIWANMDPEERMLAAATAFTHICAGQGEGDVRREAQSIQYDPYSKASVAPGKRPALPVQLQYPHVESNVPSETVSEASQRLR

[27] = molecular target: T21, HUWE1 peptide 2341-2430 (human library), Q7Z6Z7
T21 chain: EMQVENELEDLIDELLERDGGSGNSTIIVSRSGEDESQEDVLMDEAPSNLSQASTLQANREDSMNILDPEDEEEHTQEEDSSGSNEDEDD

[28] = molecular target: T22, Znf462 peptide 1-90 (human library), Q96JM2
T22 chain: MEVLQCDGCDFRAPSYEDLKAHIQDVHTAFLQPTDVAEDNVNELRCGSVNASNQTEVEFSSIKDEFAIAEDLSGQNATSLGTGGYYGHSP

[29] = molecular target: T23, GSDMD peptide 259-315 (mouse library)
T23 chain: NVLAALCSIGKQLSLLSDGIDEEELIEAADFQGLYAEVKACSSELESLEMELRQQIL

[30] = molecular target: T24, GSDMD peptide 222-278 (mouse library)
T24 chain: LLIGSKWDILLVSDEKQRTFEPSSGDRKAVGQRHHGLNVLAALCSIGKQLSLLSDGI

B1: Caspase-1 (recombinant) (protein)
chain: NPAMPTSSGSEGNVKLCSLEEAQRIWKQKSAEIYPIMDKSSRTRLALIICNEEFDSIPRRTGAEVDITGMTMLLQNLGYSVDVKKNLTASDMTTELEAFAHRPEHKTSDSTFLVFMSHGIREGICGKKHSEQVPDILQLNAIFNMLNTKNCPSLKDKPKVIIIQACRGDSPGVVWFKDSVGVSGNLSLPTTEEFEDDAIKKAHIEKDFIAFCSSTPDNVSWRHPTMGSVFIGRLIEHMQEYACSCDVEEIFRKVRFSFEQPDGRAQMPTTERVTLTRCFYLFPGH
For B1, the Caspase1 fold change [1] was 16.8 fold, the Caspase1 fold change [2] was 23.1 fold and the Caspase1 fold change [3] was 16.4 fold. The Caspase1 fold change [4] was 16.4 fold, the Caspase1 fold change [5] was 18.7 fold and the Caspase1 fold change [6] was 16.4 fold. For the same protein, the Caspase1 fold change [7] was 16.5 fold, the Caspase1 fold change [8] was 18.2 fold and the Caspase1 fold change [9] was 8.8 fold. It also gave a Caspase1 fold change [10] of 21.1 fold, a Caspase1 fold change [11] of 17.1 fold and a Caspase1 fold change [12] of 21 fold. The “enrichment of the PreScission digestible clone spiked into the human library” value [13] was “no enrichment is observed when digested with Caspase-1”, the Caspase1 fold change [14] was 16.5 fold and the Caspase1 fold change [15] was 18.8 fold. The Caspase1 fold change [16] was 8.1 fold, the Caspase1 fold change [17] was 16.3 fold and the Caspase1 fold change [18] was 6.13 fold. For the same protein, the Caspase1 fold change [19] was 17.6 fold, the Caspase1 fold change [20] was 22.7 fold and the “enrichment in SEPARATE (human library digest)” value [21] was “did not score in the assay”. It also gave a Caspase1 fold change [22] of 18.7 fold, a Caspase1 fold change [23] of 19.8 fold and a Caspase1 fold change [24] of 13.2 fold. For the same protein, the “Western blot, cleavage of endogenous HUWE1 in THP-1 lysate” value [25] was “robust cleavage of endogenous HUWE1”, the Caspase1 fold change [26] was 19.7 fold and the Caspase1 fold change [27] was 16.6 fold. The Caspase1 fold change [28] was 19.1 fold, the Caspase1 fold change [29] was 6.78 fold and the Caspase1 fold change [30] was 4.23 fold.
